From patent US20110151450
Substitutions are numbered along the chain they refer to.

Tests used:
Assay in all cases: cleavage_in_vitro
[1] = biological target: T1, BglII-WT (Bacillus globigii) (UniProt Q45488); conditions: NEB4, relative activity 6.3%
T1 sequence: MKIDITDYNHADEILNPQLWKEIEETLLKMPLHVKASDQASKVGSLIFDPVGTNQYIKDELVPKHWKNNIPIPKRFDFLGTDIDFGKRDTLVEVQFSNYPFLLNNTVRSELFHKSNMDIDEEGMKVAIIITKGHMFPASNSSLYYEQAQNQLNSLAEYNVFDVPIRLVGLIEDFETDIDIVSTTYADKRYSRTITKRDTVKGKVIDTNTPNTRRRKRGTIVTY

[2] = system: T2, BmtI-WT (Bacillus megaterium); conditions: NEB4, relative activity 100%
T2 sequence: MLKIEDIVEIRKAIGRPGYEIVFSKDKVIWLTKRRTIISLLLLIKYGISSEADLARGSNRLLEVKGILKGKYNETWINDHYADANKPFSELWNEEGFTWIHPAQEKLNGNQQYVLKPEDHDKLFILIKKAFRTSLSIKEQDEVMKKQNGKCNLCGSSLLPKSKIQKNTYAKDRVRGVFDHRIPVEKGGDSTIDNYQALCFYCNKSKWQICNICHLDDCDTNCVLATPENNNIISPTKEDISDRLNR

[3] = system: T3, BsaWI-HF Q261A (Bacillus stearothermophilus); conditions: NEB4, relative activity 100%
T3 sequence: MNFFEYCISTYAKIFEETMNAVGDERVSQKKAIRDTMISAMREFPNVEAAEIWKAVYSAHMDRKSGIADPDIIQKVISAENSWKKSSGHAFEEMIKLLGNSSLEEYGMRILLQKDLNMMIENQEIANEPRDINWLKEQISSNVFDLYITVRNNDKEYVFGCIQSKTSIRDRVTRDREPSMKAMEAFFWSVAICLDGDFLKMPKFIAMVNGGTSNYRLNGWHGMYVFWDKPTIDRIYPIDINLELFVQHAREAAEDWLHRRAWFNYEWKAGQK

[4] = system: T4, BsaWI-WT (Bacillus stearothermophilus); conditions: NEB4, relative activity 100%
T4 sequence: T3 sequence with A261Q

[5] = system: T5, NsiI-HF F376A (Neisseria sicca); conditions: NEB4, relative activity 100%
T5 sequence: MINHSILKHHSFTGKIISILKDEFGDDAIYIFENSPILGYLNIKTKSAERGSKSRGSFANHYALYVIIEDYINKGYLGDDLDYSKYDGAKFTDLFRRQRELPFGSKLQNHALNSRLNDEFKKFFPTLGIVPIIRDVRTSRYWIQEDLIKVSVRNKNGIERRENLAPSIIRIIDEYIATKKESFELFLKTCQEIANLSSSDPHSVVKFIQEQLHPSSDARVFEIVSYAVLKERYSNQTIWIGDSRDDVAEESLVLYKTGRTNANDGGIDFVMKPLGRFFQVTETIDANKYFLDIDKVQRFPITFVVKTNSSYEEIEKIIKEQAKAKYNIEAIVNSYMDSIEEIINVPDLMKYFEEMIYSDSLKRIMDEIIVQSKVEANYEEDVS

[6] = system: T6, NsiI-WT (Neisseria sicca); conditions: NEB4, relative activity 12.5%
T6 sequence: T5 sequence with A376F

[7] = system: T7, PvuI-HF P154A (Proteus vulgaris); conditions: NEB4, relative activity 100%
T7 sequence: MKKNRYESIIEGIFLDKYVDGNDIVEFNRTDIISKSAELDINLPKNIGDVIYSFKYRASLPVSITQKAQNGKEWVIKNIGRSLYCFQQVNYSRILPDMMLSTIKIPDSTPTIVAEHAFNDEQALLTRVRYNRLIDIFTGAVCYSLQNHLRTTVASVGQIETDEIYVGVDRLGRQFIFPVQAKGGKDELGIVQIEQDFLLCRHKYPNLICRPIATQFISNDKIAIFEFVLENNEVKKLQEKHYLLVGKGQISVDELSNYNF

pXba plasmid
activity (fidelity index) [1]: 16
activity (fidelity index) [2]: 16
activity (fidelity index) [3]: > 4000
activity (fidelity index) [4]: 16
activity (fidelity index) [5]: > 8000
activity (fidelity index) [6]: 32
activity (fidelity index) [7]: > 16000
